According to article PMC2932714 (PLoS ONE, 2010):

Target: the molecule itself
Experiment: thioflavin T fluorescence + atomi

B1: Ure2 (yeast prion protein Ure2, Saccharomyces cerevisiae) (natural protein, UniProt P23202 1-354, looked up)
chain: MMNNNGNQVSNLSNALRQVNIGNRNSNTTTDQSNINFEFSTGVNNNNNNNSSSNNNNVQNNNSGRNGSQNNDNENNIKNTLEQHRQQQQAFSDMSHVEYSRITKFFQEQPLEGYTLFSHRSAPNGFKVAIVLSELGFHYNTIFLDFNLGEHRAPEFVSVNPNARVPALIDHGMDNLSIWESGAILLHLVNKYYKETGNPLLWSDDLADQSQINAWLFFQTSGHAPMIGQALHFRYFHSQKIASAVERYTDEVRRVYGVVEMALAERREALVMELDTENAAAYSAGTTPMSQSRFFDYPVWLVGDKLTIADLAFVPWNNVVDRIGINIKIEFPEVYKWTKHMMRRPAVIKALRGE
notes: Ure2, Saccharomyces cerevisiae; the introduction describes it as a 354-amino acid homodimeric protein; It starts as the native dimer and assembles into protofibrils and mature fibrils on incubation at 4°C; also called WT Ure2; native Ure2; source: Escherichia coli, purified under native conditions
- binding result: binds
